Laboratory results as given in the supplement of paper PMC9732359.
± gives the uncertainty stated by the source.

Experiment: protein stability index of a GFP-peptide fusion (yeast GPS) (PSI 1-4); higher = more stable; sorted into four equal gates, so the index is relative within each strain
Method in brief: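 The protein stability index combines read frequencies across sorting gates, each weighted by its gate number and then summed. To obtain those frequencies, a pooled yeast library of GFP fusions to tiled 17-residue yeast protein peptides, on a plasmid also expressing Cherry, was grown to mid-log phase in leucine-free medium. The cells were sorted into four equal gates by GFP/Cherry ratio before plasmid amplification by PCR and Illumina sequencing.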

Sequence | protein stability index (doa10∆) | protein stability index (pdr5∆) | protein stability index (san1∆) | protein stability index (ubr1∆)
MIYDDAHEISQGVYGAV [BRR2] | 3 ± 0.068 | 2.88 ± 0.051 | 2.83 ± 0.049 | 2.67 ± 0.045
SKEETVDFIKHSLSQAI [PRE3] | 2.56 ± 0.065 | 2.65 ± 0.063 | 2.66 ± 0.056 | 2.7 ± 0.053
KKIKGKSIQDIVGLATL [SRP21] | 3.12 ± 0.039 | 3.22 ± 0.035 | 3.177 ± 0.026 | 3.116 ± 0.031
CGFWQPAWRVWLNFLRG [PRP8] | 2.52 ± 0.072 | 2.87 ± 0.12 | 1.62 ± 0.13 | 2.35 ± 0.062
YGLIRGLKFASFIFQYY [PRP8] | 2.23 ± 0.11 | 2.52 ± 0.13 | 2.02 ± 0.093 | 2.36 ± 0.085
VTKILPHLIIQNHNSKS [IRR1] | 1.41 ± 0.11 | 1.19 ± 0.072 | 1.16 ± 0.13 | 1.15 ± 0.073
EQENMRKVREQEELKKR [MED2] |  | 3.13 ± 0.19 |  | 3.56 ± 0.11
LAIKDSKKRFAAIWTLC [RPO21] | 1.9 ± 0.045 | 1.92 ± 0.045 | 1.8 ± 0.072 | 2.1 ± 0.036
EKAKSAGTQSSKFSKQQ [RPL24A] | 3.15 ± 0.064 | 3.23 ± 0.076 | 3.32 ± 0.047 | 3.12 ± 0.067
SVRKFLEIALFKYRKAR [RPO31] | 2.31 ± 0.12 | 1.18 ± 0.097 | 1.36 ± 0.17 | 1.32 ± 0.15
PTLAGMAQRTLKNKYES [FAS2] | 2.76 ± 0.031 | 2.67 ± 0.027 | 2.63 ± 0.029 | 2.657 ± 0.02
IKEDIEKFDLERVTALK [SMC1] | 3.63 ± 0.21 |  | 3.41 ± 0.1 | 
GFIDASCIAVMAGLMHF [RRP45] | 1.48 ± 0.041 | 1.55 ± 0.04 | 1.85 ± 0.082 | 1.46 ± 0.031
NNTNTDNVSGLTRNAPL [SNF2] | 3.06 ± 0.069 | 3.35 ± 0.049 | 3.05 ± 0.039 | 3.16 ± 0.037
THEDLPKEVDGLEVGPV [IRR1] | 3.21 ± 0.091 | 3.35 ± 0.11 | 3.06 ± 0.094 | 3.18 ± 0.086
QMAVHIATDGGRICRPL [RET1] | 2.66 ± 0.094 | 3.04 ± 0.085 | 2.78 ± 0.1 | 2.8 ± 0.054
RAGMTHEDEKLIPTIFR [PRP8] | 3.19 ± 0.085 | 3.28 ± 0.076 | 3.15 ± 0.049 | 3.19 ± 0.05
TTVPFKESDDPSIPLVI [POP1] | 2.8 ± 0.068 | 3.01 ± 0.069 | 2.87 ± 0.054 | 2.89 ± 0.077
PSANNSSSIKSTGPTGA [RRP4] | 3.32 ± 0.038 | 3.28 ± 0.043 | 3.349 ± 0.029 | 3.348 ± 0.032
FPSIPLPINGPITNKER [RPC31] | 2.23 ± 0.058 | 2.37 ± 0.064 | 2.17 ± 0.082 | 2.56 ± 0.11
AEQLKISLSVHTLALEF [RRP46] | 2.1 ± 0.058 | 2.29 ± 0.044 | 2.37 ± 0.063 | 2.25 ± 0.048
KELNEKIQKLEEDDEGE [RPN7] | 1.2 ± 0.11 | 1.61 ± 0.12 | 1.25 ± 0.15 | 1.06 ± 0.08
LLSKLLLKHPFKAIHGS [YCS4] | 2.37 ± 0.051 | 2.09 ± 0.05 | 1.67 ± 0.059 | 2.44 ± 0.035
NILFSLWKLLSTVKVSD [YLR018C/POM34] | 1.76 ± 0.07 | 1.46 ± 0.058 | 1.58 ± 0.12 | 1.55 ± 0.057
KKICNHPFVFEEVEDQI [SNF2] | 3.17 ± 0.064 | 2.89 ± 0.055 | 2.94 ± 0.06 | 2.86 ± 0.045
RDGVLTVTLNKNREVVQ [RRP45] | 2.71 ± 0.11 | 2.93 ± 0.11 | 2.81 ± 0.08 | 2.73 ± 0.088

Sequence | protein stability index (doa10∆) | protein stability index (pdr5∆) | protein stability index (san1∆) | protein stability index (ubr1∆)
KGVYLILSEILCQINKC [YML103C/NUP188] | 1.86 ± 0.055 | 1.56 ± 0.047 | 2.23 ± 0.075 | 1.88 ± 0.032
QEPSASQVKDSVTETES [SRP68] | 3.27 ± 0.13 | 2.93 ± 0.18 | 3.14 ± 0.18 | 2.81 ± 0.19
ATDISGELRDYIEDFLL [YJR042W/NUP85] | 3.31 ± 0.1 | 3.31 ± 0.081 | 3.22 ± 0.056 | 3.3 ± 0.041
TVMFFYHNKHMMCDFGT [DIB1] | 2.58 ± 0.049 | 2.51 ± 0.046 | 2.6 ± 0.046 | 2.54 ± 0.032
IGVIQLAHYVVTAKLLG [FAS1] | 1.51 ± 0.066 | 1.23 ± 0.04 | 1.24 ± 0.09 | 1.35 ± 0.053
AKLIRSAIEHTTLKSVT [RPO21] | 3.46 ± 0.15 | 2.96 ± 0.2 | 3.19 ± 0.19 | 3.04 ± 0.12
TITKRNGAFQNSSNLSY [RRP4] | 3.04 ± 0.054 | 3.02 ± 0.057 | 3.1 ± 0.04 | 3.11 ± 0.042
EKESVEKQHENAVLELG [SMC3] | 3.36 ± 0.2 | 3.52 ± 0.13 | 2.9 ± 0.1 | 3.42 ± 0.073
KKITLQLLDTSNQRFKD [SIN4] | 3.02 ± 0.059 | 3.18 ± 0.067 | 2.91 ± 0.048 | 2.88 ± 0.039
FGKLLQAYQFLNTFGSK [ITC1] | 1.5 ± 0.064 | 1.26 ± 0.073 | 1.19 ± 0.12 | 1.31 ± 0.094
LLDTNSLEENAMSTVTL [SKI6] | 3.11 ± 0.086 | 3.04 ± 0.066 | 3.04 ± 0.083 | 2.89 ± 0.061
RNLQMGLRNQNMVRNNN [GRR1] | 2.62 ± 0.088 | 2.72 ± 0.093 | 2.63 ± 0.063 | 2.54 ± 0.055
QRGEDDLTFKLADILKA [RPO21] | 2.34 ± 0.082 | 2.61 ± 0.1 | 2.45 ± 0.066 | 2.1 ± 0.046
QALQMKAMDIPIGRHEE [SWP82] | 2.86 ± 0.22 | 2.29 ± 0.13 |  | 2.08 ± 0.062
NFASGDNNTASNMLGSN [RPB3] | 3 ± 0.12 | 2.98 ± 0.089 | 3 ± 0.12 | 3.24 ± 0.21
RNNFLAENSHTQPKATS [PUP1] | 3.14 ± 0.069 | 3.1 ± 0.059 | 3.06 ± 0.044 | 3.13 ± 0.04
YQSSVQEPFLNSSNYAE [PRP8] | 2.99 ± 0.055 | 2.96 ± 0.052 | 2.78 ± 0.053 | 2.9 ± 0.043
TSQHSDSLTQNNNNAPI [YOR098C/NUP1] | 2.72 ± 0.051 | 2.95 ± 0.036 | 2.94 ± 0.043 | 2.88 ± 0.031
TRLTAYQELAYRATSLD [YML031W/NDC1] | 3.13 ± 0.11 | 3.01 ± 0.11 | 3.32 ± 0.072 | 3.04 ± 0.11
KVKPIRGFCQRLKGKQG [RPO31] | 2.79 ± 0.14 | 2.97 ± 0.16 | 2.79 ± 0.13 | 
PLGVILTFVSVDEELGP [SCL1] | 1.72 ± 0.039 | 1.9 ± 0.037 | 2.67 ± 0.052 | 2.46 ± 0.04
LGIKVAELTGDSRLSRK [BRR2] |  | 2.18 ± 0.19 | 2.67 ± 0.16 | 
ELTAQGYDPALLNILSG [RPN2] | 2.76 ± 0.091 | 3.06 ± 0.12 | 2.58 ± 0.071 | 2.89 ± 0.079
NMVRNNNNNTIDESMPD [GRR1] | 2.83 ± 0.057 | 3.12 ± 0.061 | 3.02 ± 0.074 | 3.12 ± 0.052
IVLIKGISSAYIKSATL [SNU114] | 1.92 ± 0.087 | 2.05 ± 0.069 | 2.5 ± 0.07 | 2.52 ± 0.064
VLEFCKDYEAKTKAMSL [POP1] | 3.06 ± 0.045 | 2.67 ± 0.043 | 2.73 ± 0.037 | 3.06 ± 0.031
